Measurements reported in patent US20260000643A1, “Combination Of Curaxins And Immune Checkpoint Inhibitors For Treating Cancer” (Institute For Cancer Research d/b/a The Research Institute …, priority 2022, published 2026).

B1: TRAIL: inflammatory cytokine of the tested panel (protein, UniProt P50591 1-281, looked up)
Tumor necrosis factor ligand …: MAMMEVQGGPSLGQTCVLIVIFTVLLQSLCVAVTYVYFTNELKQMQDKYSKSGIACFLKEDDSYWDPNDEESMNSPCWQVKWQLRQLVRKMILRTSEETISTVQEKQQNISPLVRERGPQRVAAHITGTRGRSNTLSSPNSKNEKALGRKINSWESSRSGHSFLSNLHLRNGELVIHEKGFYYIYSQTYFRFQEEIKENTKNDKQMVQYIYKYTSYPDPILLMKSARNSCWSKDAEYGLYSIYQGGIFELKENDRIFVSVTNEHLIDMDHEASFFGAFLVG
B2: IFNγ: inflammatory cytokine of the tested panel (protein, UniProt P01579 24-161, looked up)
Interferon gamma: QDPYVKEAENLKKYFNAGHSDVADNGTLFLGILKNWKEESDRKIMQSQIVSFYFKLFKNFKDDQSIQKSVETIKEDMNVKFFNSNKKKRDDFEKLTNYSVTDLNVQRKAIHELIQVMAELSPAAKTGKRKRSQMLFRG
B3: IL-1α: inflammatory cytokine of the tested panel (protein, UniProt P01583 113-271, looked up)
Interleukin-1 alpha: SAPFSFLSNVKYNFMRIIKYEFILNDALNQSIIRANDQYLTAAALHNLDEAVKFDMGAYKSSKDDAKITVILRISKTQLYVTAQDEDQPVLLKEMPEIPKTITGSETNLLFFWETHGTKNYFTSVAHPNLFIATKQDYWVCLAGGPPSITDFQILENQA

Test system: ADAR1 KO FLAG-ZBP1 MEFs
Experiment: Cytokine-induced ZBP1-dependent cell death in ADAR1-deficient MEFs
Assay type: cell-based, murine
Conditions: cytokines 100 ng/mL, viability at 48 hours
Description: Immortalized Zbp1^−/− stably reconstituted with FLAG-ZBP1 MEFs were transiently transfected with TrueGuide Synthetic sgRNA against mouse Adar1 (ThermoFisher Scientific, CRISPR162007 SGM) and TrueCut Cas9 Protein (ThermoFisher Scientific, A36499) by Lipofectamine CRISPRMAX Cas9 Transfection Reagent (ThermoFisher Scientific, CMAX00008). After two days, cells were harvest and examined ADAR1 protein level by western blot.

Row | Molecule | ZBP1-dependent cell death in ADAR1-deficient MEFs
1 | TNFα | not
2 | B1 | not
3 | B2 | induced ZBP1-dependent cell death
4 | B3 | not
